Laboratory results from paper PMC12817928, “Demonstration of in vivo efficacy, cryo-EM-epitope identification, and breadth of two anti-alphavirus bispecific single domain antibodies” (Journal of Virology, 2025).

T1: VEEV virus-like particle (VLP), strain TC83 (subtype IAB) (Venezuelan equine encephalitis virus, …, strain)
T1 construct: also called VEEV VLP; VEEV IAB VLP
T1 chain 1: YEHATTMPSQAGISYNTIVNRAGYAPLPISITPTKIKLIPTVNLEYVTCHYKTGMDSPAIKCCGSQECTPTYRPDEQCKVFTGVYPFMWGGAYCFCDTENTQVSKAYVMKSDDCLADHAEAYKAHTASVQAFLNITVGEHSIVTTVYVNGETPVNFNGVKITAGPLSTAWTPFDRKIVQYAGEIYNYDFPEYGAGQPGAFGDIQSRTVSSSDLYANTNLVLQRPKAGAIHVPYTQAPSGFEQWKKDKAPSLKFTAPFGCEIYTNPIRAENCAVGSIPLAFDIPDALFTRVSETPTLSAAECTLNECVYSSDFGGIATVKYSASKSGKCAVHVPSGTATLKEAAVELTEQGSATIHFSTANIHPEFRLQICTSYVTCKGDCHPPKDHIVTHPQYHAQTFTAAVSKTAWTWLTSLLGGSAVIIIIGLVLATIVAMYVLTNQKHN
T1 chain 2: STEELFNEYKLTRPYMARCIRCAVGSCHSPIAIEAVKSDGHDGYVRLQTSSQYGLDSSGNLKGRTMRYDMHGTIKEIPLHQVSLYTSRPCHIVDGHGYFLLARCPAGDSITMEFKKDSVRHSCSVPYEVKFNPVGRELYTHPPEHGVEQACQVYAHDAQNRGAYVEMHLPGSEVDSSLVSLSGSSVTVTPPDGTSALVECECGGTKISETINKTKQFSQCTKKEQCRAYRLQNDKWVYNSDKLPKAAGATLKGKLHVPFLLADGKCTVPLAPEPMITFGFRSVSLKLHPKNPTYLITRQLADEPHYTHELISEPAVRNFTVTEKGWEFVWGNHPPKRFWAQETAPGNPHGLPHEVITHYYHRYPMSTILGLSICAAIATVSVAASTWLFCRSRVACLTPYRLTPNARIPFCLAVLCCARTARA

T2: VEEV E1 envelope glycoprotein (strain TC83), in the VLP (Venezuelan equine encephalitis virus, …)
T2 construct: also called E1 subunit
T2 chain 1: T1 chain 1
T2 chain 2: T1 chain 2

T3: VEEV E2 envelope glycoprotein (strain TC83), in the VLP (Venezuelan equine encephalitis virus, …, strain)
T3 construct: also called E2 subunit
T3 chain 1: T1 chain 2
T3 chain 2: T1 chain 1

B1: sdAb V2B3 (VHH)
VHH: EVQLQASGGGLVQAGGSLRLSCAASGSIVSINVMAWYRQSPGKERELVAKSSGPFTLYADSVKGRFTISNDAAKNTVDLQMNSLKPEDTAVYYCNAEGLRYPSGTYGPSAVWGQGTQVTVSS
notes: source: ClearColi BL21(DE3), purified (Ni Sepharose, MEP HyperCel, SEC)
B2: sdAb V2C3 (VHH)
VHH: DVQLQASGGGSVQAGGSLRLSCVASQNLFEYYTMGWYRQVPGSQRERVALINNGGSNVAGSVEGRFTISRDNAKNSIYLQMNNLKPEDSAVYYCRAFGPADYWGQGTQVTVSS
notes: as for B1
B3: sdAb V3A8f (VHH)
VHH: DVQLQASGGGSVQAGGSLRLSCAASGHSFANYHVAWIRQTPGKEREFVGSASRRDDSTYYADFALGRFIISRDNDINTAYLQMNSLKPEDSAVYYCVAAVMAQTTQGWTTDYDLRGQGTQVTVSS

Target: T1, VEEV virus-like particle (VLP), strain …
Assay: cryo-EM structure
Conditions: both partners purified

Binder	binding result
B1	binds
B2	binds
B3	binds

Target: T2, VEEV E1 envelope glycoprotein (strain …)
Assay: cryo-EM structure
Conditions: both partners purified

Binder	binding result
B1	binds
B2	binds
B3	binds

Target: T3, VEEV E2 envelope glycoprotein (strain …)
Assay: cryo-EM structure
Conditions: both partners purified

Binder	binding result
B1	binds
B2	binds
B3	binds
